The values that follow come from patent publication US20260078195A1.

Assay [1] concerns the target human CD3 complex on Jurkat cells (human) (UniProt P07766). Nature of the assay: FACS on Jurkat cells, PE goat anti-human IgG (H+L) secondary antibody, MFI.
Assay [2] addresses mouse BCMA expressed on HEK293A cells (mouse) (UniProt O88472). Nature of the assay: FACS on HEK293A/mouse BCMA cells, PE goat anti-human IgG (H+L) secondary antibody, MFI.
In assay [3] the target is monkey BCMA expressed on HEK293A cells (monkey). Nature of the assay: FACS on HEK293A/monkey BCMA cells, PE goat anti-human IgG (H+L) secondary antibody, MFI.
monkey BCMA expressed on HEK293A cells (monkey), sequence (Q02223 other isoform, or with tags, fused parts or gaps): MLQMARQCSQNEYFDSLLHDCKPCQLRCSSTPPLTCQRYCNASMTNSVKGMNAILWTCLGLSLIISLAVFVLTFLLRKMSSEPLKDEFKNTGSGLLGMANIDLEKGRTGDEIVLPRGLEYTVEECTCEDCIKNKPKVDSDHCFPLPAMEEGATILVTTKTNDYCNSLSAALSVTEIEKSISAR
The target of assay [4] is human CD3D&E protein (Cat #: CT038-H2508H, Sino biological) (human) (UniProt P04234). Nature of the assay: SPR (BIAcore 8K), antibody captured by anti-human Fc on CM5 chip, antigen as analyte. (In SPR one partner is held on a chip, and binding of the other changes the refractive index at the surface.)
human CD3D&E protein (Cat #: CT038-H2508H, Sino biological) (human), sequence (P04234 22-105, chain 1 of 2): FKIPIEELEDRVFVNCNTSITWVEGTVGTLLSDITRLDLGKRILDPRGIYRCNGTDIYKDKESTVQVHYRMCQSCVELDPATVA
human CD3D&E protein (Cat #: CT038-H2508H, Sino biological) (human), sequence (P07766 23-126, chain 2 of 2, further chain): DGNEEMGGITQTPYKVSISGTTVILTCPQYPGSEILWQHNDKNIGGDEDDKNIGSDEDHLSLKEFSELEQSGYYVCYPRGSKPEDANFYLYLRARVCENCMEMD
The target in assay [5] is human BCMA antigen (Cat #:BCA-H522y, ACRO) (human) (UniProt Q02223). The assay is described as above.
human BCMA antigen (Cat #:BCA-H522y, ACRO) (human), sequence (Q02223 1-54 limits assumed): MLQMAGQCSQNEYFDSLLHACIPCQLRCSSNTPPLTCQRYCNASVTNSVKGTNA
Assay [6] addresses human BCMA expressed on HEK293A cells (human) (UniProt Q02223). Nature of the assay: FACS on HEK293A/human BCMA cells, PE goat anti-human IgG (H+L) secondary antibody, MFI.
Assay [7] addresses human GPRC5D expressed on HEK293T cells (human) (UniProt Q9NZD1). Nature of the assay: FACS on HEK293T/human GPRC5D cells, PE goat anti-human IgG (H+L) secondary antibody, MFI.
Assay [8] concerns the target human GPRC5D antigen (Cat #:HM05P, Kactus Biosystems) (human) (UniProt Q9NZD1). Nature of the assay: SPR (BIAcore 8K), antibody captured by anti-human Fc on CM5 chip, antigen as analyte.

mouse BCMA expressed on HEK293A cells (mouse), sequence (O88472 whole entry): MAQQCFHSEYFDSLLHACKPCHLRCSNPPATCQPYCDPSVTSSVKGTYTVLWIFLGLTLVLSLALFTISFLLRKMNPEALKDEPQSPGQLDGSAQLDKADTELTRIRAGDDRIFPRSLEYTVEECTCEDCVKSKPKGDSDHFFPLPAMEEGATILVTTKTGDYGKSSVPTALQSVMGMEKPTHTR
human GPRC5D expressed on HEK293T cells (human), sequence (Q9NZD1 whole entry): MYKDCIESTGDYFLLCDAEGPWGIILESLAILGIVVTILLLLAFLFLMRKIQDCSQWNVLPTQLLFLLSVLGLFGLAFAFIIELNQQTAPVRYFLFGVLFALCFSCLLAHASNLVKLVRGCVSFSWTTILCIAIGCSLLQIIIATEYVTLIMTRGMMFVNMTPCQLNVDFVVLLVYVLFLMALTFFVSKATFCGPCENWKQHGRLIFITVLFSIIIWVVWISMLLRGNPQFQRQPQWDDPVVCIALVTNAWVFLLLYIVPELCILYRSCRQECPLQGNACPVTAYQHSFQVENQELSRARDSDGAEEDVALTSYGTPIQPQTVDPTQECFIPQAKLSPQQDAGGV
human GPRC5D antigen (Cat #:HM05P, Kactus Biosystems) (human), sequence (Q9NZD1 whole entry): as above
human BCMA expressed on HEK293A cells (human), sequence (Q02223 whole entry): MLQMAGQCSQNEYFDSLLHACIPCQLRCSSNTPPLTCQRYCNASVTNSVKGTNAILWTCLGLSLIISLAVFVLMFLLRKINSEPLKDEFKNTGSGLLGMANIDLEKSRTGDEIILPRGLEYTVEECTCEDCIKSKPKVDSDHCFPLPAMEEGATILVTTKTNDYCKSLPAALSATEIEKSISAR
human CD3 complex on Jurkat cells (human), sequence (P07766 23-207, chain 1 of 4): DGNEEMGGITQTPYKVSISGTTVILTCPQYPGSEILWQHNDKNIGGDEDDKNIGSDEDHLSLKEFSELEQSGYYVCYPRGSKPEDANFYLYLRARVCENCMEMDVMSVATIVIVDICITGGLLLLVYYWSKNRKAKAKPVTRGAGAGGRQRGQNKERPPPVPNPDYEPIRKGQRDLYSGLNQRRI
human CD3 complex on Jurkat cells (human), sequence (P04234 22-171, chain 2 of 4, further chain): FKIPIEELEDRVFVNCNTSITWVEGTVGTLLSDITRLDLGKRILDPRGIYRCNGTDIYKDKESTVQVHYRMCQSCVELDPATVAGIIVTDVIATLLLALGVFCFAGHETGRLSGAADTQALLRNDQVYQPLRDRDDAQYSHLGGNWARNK
human CD3 complex on Jurkat cells (human), sequence (P09693 23-182, chain 3 of 4, further chain): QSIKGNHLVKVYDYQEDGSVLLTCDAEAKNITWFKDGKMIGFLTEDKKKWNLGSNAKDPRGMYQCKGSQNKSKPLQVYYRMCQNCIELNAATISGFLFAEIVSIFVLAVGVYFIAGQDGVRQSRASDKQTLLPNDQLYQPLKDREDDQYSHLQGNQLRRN
human CD3 complex on Jurkat cells (human), sequence (P20963 22-164, chain 4 of 4, further chain): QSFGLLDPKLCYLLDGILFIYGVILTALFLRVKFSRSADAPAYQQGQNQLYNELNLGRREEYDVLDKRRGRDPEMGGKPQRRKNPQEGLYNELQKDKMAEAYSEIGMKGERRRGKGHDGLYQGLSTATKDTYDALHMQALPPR

For “EM801 (bi-specific BCMA×CD3 antibody) (bispecific antibody)”, the 50% effective concentration (EC50 (read off the curve)) – broadly, the concentration needed to bring the measured effect to its halfway point – stood at 0.7 mg/L in assay [1], 0.2 mg/L in assay [2], 0.1 mg/L in assay [3] and 0.07 mg/L in assay [6]. In addition, the values for the Kd in assay [4] and in assay [5] were 41 nM and 0.996 nM, respectively. The off-rate (koff) (usually the rate constant with which the complex falls apart) in assay [4] was 0.00757 s⁻¹; in assay [5], 0.00227 s⁻¹. Further, the association rate constant (kon) (as a rule, a measure of how fast the partners come together) in assay [4] came to 185000 M⁻¹ s⁻¹; in assay [5], 2.28e+06 M⁻¹ s⁻¹.
In turn, “JNJ-64407564 (bi-specific GPRC5D×CD3 antibody) (bispecific antibody)” had a 50% effective concentration (EC50 (read off the curve)) in assay [7] of 0.1 mg/L. For the same substance, the Kd (usually the concentration at which binding is half-saturated) in assay [8] amounted to 4.21 nM.
